For this series, the target named is T1, NtcA (Synechocystis sp. PCC 6803) (UniProt P33779).
T1 sequence: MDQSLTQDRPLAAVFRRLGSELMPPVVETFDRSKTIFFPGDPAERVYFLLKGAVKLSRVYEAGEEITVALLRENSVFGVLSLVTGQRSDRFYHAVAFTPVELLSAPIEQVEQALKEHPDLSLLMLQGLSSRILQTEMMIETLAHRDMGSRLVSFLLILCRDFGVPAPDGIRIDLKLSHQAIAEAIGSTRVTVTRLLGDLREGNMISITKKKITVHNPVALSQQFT
Put plainly: EMSA. The conditions noted are these: Roche DIG Gel Shift kit buffer (composition and pH not stated), 2 ng DIG-labeled DNA, 15 min at room temperature, native 8% PAGE; 5 mM MgCl2 in 2-oxoglutarate …. For orientation: In EMSA bound probe runs differently from free probe, usually more slowly.

The source of these data is paper PMC6331805.

“ACTCTGACGTACCCATTGACGGGGTAACTTACTCAAGCTAAAAGGTAAAGAATTGTAAACTAAGTTAATTATCCCAGGAAATCCCATGAG (double strand) [scpE promoter fragment 90 bp]”: the binding result was “binds”. Consider “TTTGAGCCTAACATTATCCTCCCGTTGCCTTTTTCACCACAGACTTGCCATGGGCGCAATACTCTGTTACATTTATTTACATAGACAACCCTCCCAGCTCGTAATTACAT (double strand) [scpB promoter fragment 110 bp]”, for which the binding result is given as “binds”.
